Holding throughout (assay): co-expression, protein-A, scanning densitometry of non-reduced SDS-PAGE
One assay deals with VL-BT beta chain (Artificial Sequence).
For assay [1], the target named is VH(anti-hCD19)-CH1 delta-BT beta c-myc_VL(anti-hCD19)-CK gamma molecule (half-molecule) (Artificial Sequence).
Assay [2] deals with VH(anti-hCD19)-CH13-BT beta c-myc_VL(anti-hCD19)-CK3 molecule (half-molecule) (Artificial Sequence).
For the next assay, the target named is VL-BT beta F405A chain (Artificial Sequence).
Chain of VL-BT beta F405A chain (Artificial Sequence) (chain, as listed by the source F405A F405A): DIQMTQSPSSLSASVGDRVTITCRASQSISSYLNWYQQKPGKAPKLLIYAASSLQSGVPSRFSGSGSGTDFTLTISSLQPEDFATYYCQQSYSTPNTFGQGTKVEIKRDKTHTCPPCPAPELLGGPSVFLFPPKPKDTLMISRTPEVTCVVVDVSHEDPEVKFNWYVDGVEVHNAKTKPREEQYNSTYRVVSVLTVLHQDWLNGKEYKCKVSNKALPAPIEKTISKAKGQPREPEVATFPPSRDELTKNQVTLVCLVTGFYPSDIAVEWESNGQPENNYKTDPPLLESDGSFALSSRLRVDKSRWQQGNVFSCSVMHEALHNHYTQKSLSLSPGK

Chain of VL-BT beta chain (Artificial Sequence) (chain, as listed by the source): as the sequence (chain, as listed by the source F405A F405A) above, with A293C counted along it
Chain of VH(anti-hCD19)-CH1 delta-BT beta c-myc_VL(anti-hCD19)-CK gamma molecule (half-molecule) (Artificial Sequence) (heavy, as listed by the source, chain 1 of 2): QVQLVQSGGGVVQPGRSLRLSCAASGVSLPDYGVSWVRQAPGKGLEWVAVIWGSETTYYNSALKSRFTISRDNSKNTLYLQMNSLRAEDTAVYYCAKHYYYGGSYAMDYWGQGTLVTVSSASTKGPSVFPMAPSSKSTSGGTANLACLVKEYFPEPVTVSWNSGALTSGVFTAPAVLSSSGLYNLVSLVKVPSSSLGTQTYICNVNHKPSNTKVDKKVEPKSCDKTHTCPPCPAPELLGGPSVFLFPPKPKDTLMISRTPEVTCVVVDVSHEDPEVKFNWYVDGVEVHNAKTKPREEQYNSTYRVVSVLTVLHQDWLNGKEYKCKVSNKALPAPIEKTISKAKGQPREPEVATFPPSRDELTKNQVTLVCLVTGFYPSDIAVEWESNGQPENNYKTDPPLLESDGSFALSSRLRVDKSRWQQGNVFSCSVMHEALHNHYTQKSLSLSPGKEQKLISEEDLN
Chain of VH(anti-hCD19)-CH1 delta-BT beta c-myc_VL(anti-hCD19)-CK gamma molecule (half-molecule) (Artificial Sequence) (light, as listed by the source, chain 2 of 2): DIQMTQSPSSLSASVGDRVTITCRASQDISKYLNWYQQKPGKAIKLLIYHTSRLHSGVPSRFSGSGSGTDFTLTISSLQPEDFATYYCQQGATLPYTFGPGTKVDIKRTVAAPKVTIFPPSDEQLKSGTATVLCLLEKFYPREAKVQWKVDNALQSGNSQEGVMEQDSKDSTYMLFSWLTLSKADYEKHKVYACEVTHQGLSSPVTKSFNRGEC
Chain of VH(anti-hCD19)-CH13-BT beta c-myc_VL(anti-hCD19)-CK3 molecule (half-molecule) (Artificial Sequence) (heavy, as listed by the source, chain 1 of 2): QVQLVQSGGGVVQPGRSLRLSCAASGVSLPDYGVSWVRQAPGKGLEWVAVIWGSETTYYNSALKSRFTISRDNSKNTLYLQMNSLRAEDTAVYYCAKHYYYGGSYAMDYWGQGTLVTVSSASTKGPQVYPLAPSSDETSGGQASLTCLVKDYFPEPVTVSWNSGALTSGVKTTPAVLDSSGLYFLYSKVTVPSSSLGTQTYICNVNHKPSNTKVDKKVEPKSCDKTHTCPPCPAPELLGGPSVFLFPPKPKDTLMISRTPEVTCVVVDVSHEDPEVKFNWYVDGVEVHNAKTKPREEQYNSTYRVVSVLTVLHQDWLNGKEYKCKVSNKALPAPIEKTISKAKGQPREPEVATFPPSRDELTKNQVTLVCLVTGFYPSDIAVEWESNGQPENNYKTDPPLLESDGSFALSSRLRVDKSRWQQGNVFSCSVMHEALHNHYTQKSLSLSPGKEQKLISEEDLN
Chain of VH(anti-hCD19)-CH13-BT beta c-myc_VL(anti-hCD19)-CK3 molecule (half-molecule) (Artificial Sequence) (light, as listed by the source, chain 2 of 2): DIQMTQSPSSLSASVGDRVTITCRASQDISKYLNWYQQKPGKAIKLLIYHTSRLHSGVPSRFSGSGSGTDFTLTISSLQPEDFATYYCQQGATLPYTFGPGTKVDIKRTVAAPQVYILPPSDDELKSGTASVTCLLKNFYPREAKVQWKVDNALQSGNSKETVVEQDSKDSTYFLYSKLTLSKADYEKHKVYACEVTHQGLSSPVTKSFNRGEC

B1: BT alpha His chain (other)
chain: DKTHTCPPCPAPELLGGPSVFLFPPKPKDTLMISRTPEVTCVVVDVSHEDPEVKFNWYVDGVEVHNAKTKPREEQYNSTYRVVSVLTVLHQDWLNGKEYKCKVSNKALPAPIEKTISKAKGQPREPQVYTLPPSRDELTKNQVKLVCLVTGFYPSDIAVEWESNGQPENNYYTTPPVLDSDGSFSLVSWLNVDKSRWQQGNVFSCSVMHEALHNHYTQKSLSLSPGKHHHHHH
As for B1, the “hetero-dimer percentage of the protein-A purified material” value with VL-BT beta chain is at least 76.1%; in assay [1] it was at least 50%; in assay [2], at least 51.9%; with VL-BT beta F405A chain it was at least 80.7%.

For the origin of these results see patent US9683053B2 (Glenmark Pharmaceuticals S.A., dated 2017).
